Assay results as given in patent publication US6977240 (Takeda / Millennium, dated 2005).
Blank lines part the entries; values can stand above or below the molecule they belong to.

Experiments:
[1] = target: human ObR long form, expressed on transfected cells (human) (UniProt P48357); assay: cell-based or functional assay
[2] = target: T1, Ob receptor in mouse choroid plexus tissue (mouse, UniProt P48356 23-889); assay: AP staining of quartered mouse brain tissue
T1 construct: Native receptor in quartered mouse brain
T1 sequence: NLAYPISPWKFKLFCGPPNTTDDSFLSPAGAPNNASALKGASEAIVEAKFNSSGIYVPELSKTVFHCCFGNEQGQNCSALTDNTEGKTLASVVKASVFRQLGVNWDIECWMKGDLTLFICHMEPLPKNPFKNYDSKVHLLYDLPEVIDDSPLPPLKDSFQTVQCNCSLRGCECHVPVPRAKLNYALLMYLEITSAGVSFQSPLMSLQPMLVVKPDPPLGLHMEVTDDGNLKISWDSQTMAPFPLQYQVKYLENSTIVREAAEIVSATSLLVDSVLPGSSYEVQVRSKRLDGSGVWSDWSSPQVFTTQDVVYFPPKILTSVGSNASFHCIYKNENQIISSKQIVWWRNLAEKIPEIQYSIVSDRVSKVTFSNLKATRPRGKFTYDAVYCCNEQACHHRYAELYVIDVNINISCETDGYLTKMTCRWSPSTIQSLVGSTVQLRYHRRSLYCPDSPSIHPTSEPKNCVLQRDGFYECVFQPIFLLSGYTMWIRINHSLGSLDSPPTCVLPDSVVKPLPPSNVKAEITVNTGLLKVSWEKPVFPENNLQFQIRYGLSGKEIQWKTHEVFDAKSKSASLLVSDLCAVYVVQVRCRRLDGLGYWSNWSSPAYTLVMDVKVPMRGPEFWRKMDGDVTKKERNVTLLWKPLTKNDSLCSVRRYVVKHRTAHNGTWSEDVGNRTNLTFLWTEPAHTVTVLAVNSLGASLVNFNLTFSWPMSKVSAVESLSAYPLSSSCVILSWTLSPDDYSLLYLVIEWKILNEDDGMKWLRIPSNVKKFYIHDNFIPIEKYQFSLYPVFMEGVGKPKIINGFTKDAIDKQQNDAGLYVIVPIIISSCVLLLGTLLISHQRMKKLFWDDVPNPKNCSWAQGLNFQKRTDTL
Protocol: (§1) In Situ Fusion Protein Binding. Quartered mouse brains, isolated choroid plexus, cells, and cell lines were rinsed once with HBHA (Hank's balanced salt solution with 0.5 mg/ml BSA, 0.1% NaN_3, 20 mM HEPES [pH 7.0]) in 12-well plates. Tissue was then incubated with tissue culture supernatants containing AP-Ob fusion, Ob-AP fusion, or control supernatants (i.e., supernatants containing unfused AP only, containing AP-OB or OB-AP fusion proteins plus 80-fold molar excess of *E. coli*-derived recombinant OB, or supernatants from mock-transfected COS cells), for 75 minutes with gentle rotation, at room temperature. Samples were then treated as described previously (Cheng, H. J. and Flanagan, J. G., 1994, *Cell* 79:157–168).

[3] = target: T2, murine short form ObR (clone famj5312), expressed on COS cells (mouse, UniProt P48356 23-889); assay: AP activity bound to COS cells transfected with the ObR clone
T2 construct: also called mouse ObR; mouse short form
T2 sequence: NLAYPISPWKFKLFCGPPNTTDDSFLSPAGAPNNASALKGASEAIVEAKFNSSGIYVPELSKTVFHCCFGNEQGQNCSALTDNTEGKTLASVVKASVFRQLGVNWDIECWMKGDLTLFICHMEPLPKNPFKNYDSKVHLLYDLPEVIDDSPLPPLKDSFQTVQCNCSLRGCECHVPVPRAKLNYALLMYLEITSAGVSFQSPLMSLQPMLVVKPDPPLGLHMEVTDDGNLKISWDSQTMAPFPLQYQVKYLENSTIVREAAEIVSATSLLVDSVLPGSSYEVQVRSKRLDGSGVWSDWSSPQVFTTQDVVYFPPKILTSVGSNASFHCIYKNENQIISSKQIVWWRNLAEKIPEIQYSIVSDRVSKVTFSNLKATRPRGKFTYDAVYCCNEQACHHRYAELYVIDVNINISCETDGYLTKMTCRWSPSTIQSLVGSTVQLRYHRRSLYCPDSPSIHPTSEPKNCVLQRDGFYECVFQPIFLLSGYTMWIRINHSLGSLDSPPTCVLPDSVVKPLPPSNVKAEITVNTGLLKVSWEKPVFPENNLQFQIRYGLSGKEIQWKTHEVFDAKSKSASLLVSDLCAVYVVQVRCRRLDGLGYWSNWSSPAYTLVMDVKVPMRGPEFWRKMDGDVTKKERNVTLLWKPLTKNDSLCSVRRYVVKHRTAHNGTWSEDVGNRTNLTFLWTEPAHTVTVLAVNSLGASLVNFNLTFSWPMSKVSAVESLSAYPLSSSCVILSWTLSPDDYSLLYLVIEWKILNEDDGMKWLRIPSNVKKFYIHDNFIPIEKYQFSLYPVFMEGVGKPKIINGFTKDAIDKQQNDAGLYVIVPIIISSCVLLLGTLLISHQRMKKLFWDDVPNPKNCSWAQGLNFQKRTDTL
Protocol: as §1
(§2) After transient transfection of the ObR clone into COS cells, strong binding of 1 nM murine AP-Ob is detected (relative to mock transfected COS cells or ObR transfected COS cells incubated with unfused AP) (FIG. 2A). […] A fusion between AP and human Ob also binds mouse ObR with high affinity, as does a fusion protein with mouse leptin at the N-terminus and AP at the C-terminus (Ob-AP).

[4] = target: T2, murine short form ObR (clone famj5312), …; assay: 1 nM AP-OB on transfected COS cells; reference human long form ObR; laid to surface expression by the filing
Protocol: COS-1, H-35 and Hep3B cells were transfected with plasmid DNA by the DEAE-dextran method (Lopata et al., 1989, *Nucleic Acids Res.* 12:5707–5717); HepG2 cells by the calcium phosphate method (Graham et al., 1973, *Virology* 52:456–461); and COS-7 cells by the lipofectamine method. Subcultures of COS cells were maintained for 16 hours in serum-free medium prior to the activation of STAT proteins by treatment with cytokines for 15 minutes. DNA binding by STAT proteins was determined by EMSA on whole cell extracts as described in Sadowski et al. (1993, *Science* 26:1739–1744). […] CAT activities were quantitated by testing serial dilutions of cell extracts, normalized to the expression of the cotransfected marker plasmid pIE-MUP (Morella et al., 1995, *J. Biol. Chem.* 270:[…]), and are expressed relative the value of the untreated control cultures in each experimental series (defined as =1.0). Quantitative cell surface binding of the AP-OB fusion protein (Section 6) was done essentially as outlined by Cheng and Flanagan (1994, Cell 79:157–168).
To determine whether ObR has the ability to recruit the cellular signaling machinery, COS cells were transiently transfected with expression vectors for the two representative forms of ObR, mouse short form (also corresponding to a mutated form detected in db/db mice) and human long form. […]

[5] = target: T3, human ObR long form, expressed on transfected cells (human, UniProt P48357 21-1165); assay: Scatchard transformation of AP-OB binding to transfected COS cells
T3 construct: also called human long form; long form of ObR
T3 sequence: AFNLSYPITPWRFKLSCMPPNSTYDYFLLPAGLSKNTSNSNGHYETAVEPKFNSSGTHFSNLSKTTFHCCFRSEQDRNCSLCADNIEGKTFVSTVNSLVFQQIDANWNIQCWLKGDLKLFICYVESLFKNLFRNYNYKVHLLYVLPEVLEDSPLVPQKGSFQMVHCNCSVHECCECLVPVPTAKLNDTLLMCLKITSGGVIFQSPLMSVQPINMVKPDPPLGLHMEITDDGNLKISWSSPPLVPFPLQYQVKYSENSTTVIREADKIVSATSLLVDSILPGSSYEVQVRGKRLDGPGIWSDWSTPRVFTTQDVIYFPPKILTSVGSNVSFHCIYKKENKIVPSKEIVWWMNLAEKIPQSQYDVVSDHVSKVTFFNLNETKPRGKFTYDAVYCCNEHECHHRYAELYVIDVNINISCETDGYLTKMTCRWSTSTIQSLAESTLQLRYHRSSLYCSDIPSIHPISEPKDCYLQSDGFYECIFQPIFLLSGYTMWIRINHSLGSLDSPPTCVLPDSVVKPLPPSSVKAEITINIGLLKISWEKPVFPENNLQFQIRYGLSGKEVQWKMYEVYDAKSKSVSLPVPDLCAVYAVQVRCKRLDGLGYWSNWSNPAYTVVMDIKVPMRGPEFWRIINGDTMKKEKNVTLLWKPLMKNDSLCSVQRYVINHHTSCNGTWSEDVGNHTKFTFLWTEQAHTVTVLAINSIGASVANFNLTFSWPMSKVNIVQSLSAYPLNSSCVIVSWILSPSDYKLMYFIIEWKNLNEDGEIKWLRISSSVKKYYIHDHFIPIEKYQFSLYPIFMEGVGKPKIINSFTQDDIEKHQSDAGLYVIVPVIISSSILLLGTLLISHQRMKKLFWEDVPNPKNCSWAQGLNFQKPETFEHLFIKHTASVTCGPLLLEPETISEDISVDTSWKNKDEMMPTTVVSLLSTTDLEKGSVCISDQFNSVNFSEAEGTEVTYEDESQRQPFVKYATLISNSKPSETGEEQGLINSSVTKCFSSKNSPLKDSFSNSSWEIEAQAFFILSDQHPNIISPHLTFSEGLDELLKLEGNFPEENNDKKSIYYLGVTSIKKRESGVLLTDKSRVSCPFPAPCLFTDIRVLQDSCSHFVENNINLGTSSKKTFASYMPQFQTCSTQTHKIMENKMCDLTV
Protocol: (§3) FIG. 2B-1 Binding isotherm and Scatchard analysis of the interaction of AP-Ob and ObR. COS-7 cells transfected with the obR cDNA were incubated with various concentrations of the AP-Ob (mouse) fusion protein FIG. 2B-2. Scatchard transformation is shown as an inset. Paragraph beginning at page 16, line 3, please replace the paragraph with the following text:
as §2
(§4) To determine whether ObR has the ability to recruit the cellular signaling machinery, COS cells were transiently transfected with expression vectors for the two representative forms of ObR, mouse short form (also corresponding to a mutated form detected in db/db mice) and human long form. Two days after transfection, cells were incubated in 1 nM human or mouse alkaline phosphatase-OB, and cell surface expression of ObR was detected as indicated by specific binding of the alkaline phosphatase-OB (AP-OB) fusion protein.

[6] = target: T2, murine short form ObR (clone famj5312), …; assay: as above
Protocol: as §3, §2, §4

pIL6RE-SEAP reporter activity in 293 cells, 100 ng/ml leptin for 24 hours [1]: 8 fold
Molecule: leptin (Section 16, species not stated) (ligand)

binding result [2]: no binding
binding result [3]: no binding
B1: unfused AP (alkaline phosphatase) (enzyme, UniProt P05187 23-511, looked up)
chain: IIPVEEENPDFWNREAAEALGAAKKLQPAQTAAKNLIIFLGDGMGVSTVTAARILKGQKKDKLGPEIPLAMDRFPYVALSKTYNVDKHVPDSGATATAYLCGVKGNFQTIGLSAAARFNQCNTTRGNEVISVMNRAKKAGKSVGVVTTTRVQHASPAGTYAHTVNRNWYSDADVPASARQEGCQDIATQLISNMDIDVILGGGRKYMFRMGTPDPEYPDDYSQGGTRLDGKNLVQEWLAKRQGARYVWNRTELMQASLDPSVTHLMGLFEPGDMKYEIHRDSTLDPSLMEMTEAALRLLSRNPRGFFLFVEGGRIDHGHHESRAYRALTETIMFDDAIERAGQLTSEEDTLSLVTADHSHVFSFGGYPLRGSSIFGLAPGKARDRKAYTVLLYGNGPGYVLKDGARPDVTESESGSPEYRQQSAVPLDEETHAGEDVAVFARGPQAHLVHGVQEQTFIAHVMAFAACLEPYTACDLAPPAGTTDAAHPG
notes: Control; also called control AP

fold binding against the long form [4]: ~10 fold
Kd [5]: 1 nM
Kd [6]: 0.7 nM
B2: mouse AP-Ob fusion protein (ligand, UniProt P41160 22-167, looked up, not shown: large carriers)
chain: VPIQKVQDDTKTLIKTIVTRINDISHTQSVSAKQRVTGLDFIPGLHPILSLSKMDQTLAVYQQVLTSLPSQNVLQIANDLENLRDLLHLLAFSKSCSLPQTSGLQKPESLDGVLEASLYSTEVVALSRLQGSLQDILQQLDVSPEC
notes: mature; AP at the N-terminus, predicted mature Ob at the C-terminus; used as COS-7 conditioned medium; also called murine AP-Ob; AP-Ob (mouse)
